Measurements: patent publication US20230383257A1, “PRODUCTION OF MEGAKARYOCYTES AND PLATELETS IN A CO-CULTURE SYSTEM” (BOARD OF REGENTS, THE UNIVERSITY OF TEXAS SYSTEM, priority 2020, published 2023)

B1: α1,3-fucosyltransferase (protein, UniProt P51993 1-359, looked up)
4-galactosyl-N-acetylglucosami …: MDPLGPAKPQWSWRCCLTTLLFQLLMAVCFFSYLRVSQDDPTVYPNGSRFPDSTGTPAHSIPLILLWTWPFNKPIALPRCSEMVPGTADCNITADRKVYPQADAVIVHHREVMYNPSAQLPRSPRRQGQRWIWFSMESPSHCWQLKAMDGYFNLTMSYRSDSDIFTPYGWLEPWSGQPAHPPLNLSAKTELVAWAVSNWGPNSARVRYYQSLQAHLKVDVYGRSHKPLPQGTMMETLSRYKFYLAFENSLHPDYITEKLWRNALEAWAVPVVLGPSRSNYERFLPPDAFIHVDDFQSPKDLARYLQELDKDHARYLSYFRWRETLRPRSFSWALAFCKACWKLQEESRYQTRGIAAWFT
notes: fucosyl-transferase enzyme used with GDP-fucose for ex vivo fucosylation of cells

Tests used:
CB megakaryocytes [1] = experiment: Platelet secretion from megakaryocytes cultured in vitro with or without ROCK inhibitor; assay type: cell-based, human; conditions: 48 hrs culture, vs without inhibitor; dose-dependent
Excerpt: (§1) FIGS. 4A-4E. Rock inhibitor treatment enhance platelets secretion and TRAP induced activation. (FIG. 4A) Schematic representation of the strategy for the in-vitro megakaryocytes culture with or without rock inhibitor(Y27632) for 48 hrs. (FIG. 4B) Number of platelets after 48 hrs, number above bar indicates p-value. […] This indicates enhancement of functional profile of the CB platelets (FIGS. 4D-4E). Several different ROCK inhibitors can be used in this procedure including Y27632, KD025, GSK269962 and Azaindole 1([9-12].

CB megakaryocytes [2] = experiment: Megakaryocyte polyploidy by propidium iodide staining after ROCK inhibitor treatment; assay type: cell-based, human; conditions: treatment of mature megakaryocytes over 5 days, vs untreated
Excerpt: FIGS. 3A-3C. Rock inhibitor(Y27632) treatment increases megakaryocyte polyploidy. (FIG. 3A) Schematic representation of the strategy for the rock inhibitor treatment of mature megakaryocytes over 5 days. (FIG. 3B) Histogram plots showing propidium Iodide (PI) staining in fixed and permeabilized untreated or Y27632 treated megakaryocytes. (FIG. 3C) Percentage of polyploid (=>8N) megakaryocytes in untreated or Y27632 treated groups, number above bar indicates p-value.
The inventors characterized the influence of ROCK inhibitors on CB megakaryocyte ploidy changes, platelets secretions, and their functionality.
This indicates enhancement of functional profile of the CB platelets (FIGS. 4D-4E). Several different ROCK inhibitors can be used in this procedure including Y27632, KD025, GSK269962 and Azaindole 1([9-12].

CB platelets = experiment: TRAP-induced platelet activation (CD62P expression); assay type: cell-based, human; conditions: after TRAP stimulation, vs without inhibitor
Excerpt: as §1

recipient patients = conditions: ex vivo treatment of CB CD34+ progenitors with FT-VI plus GDP-fucose; cited from earlier work
[3] = system: megakaryocyte erythroid progenitors (MEPs); experiment: Cell surface fucosylation by flow cytometry HECA-452 antibody staining; assay type: cell-based, human; conditions: FT-VI 0.025 μg/ml plus GDP-fucose, 37° C., 30 min, vs control
Excerpt: (§2) FIGS. 7A-7G. FIG. 7A. […] (FIG. 7C) HECA-452 antibody mean fluorescence intensity (MFI) histogram expression in control and fucosylated megakaryocytes (CD41a+CD42b+CD61+ cells). (FIGS. 7D-7E) Schematic representation of CB megakaryocytes injection into NSG mice, BM homing analysis and the percentage of homed megakaryocytes in control and fucosylated megakaryocytes group. (FIGS. 7F-7G) CB megakaryocyte injection strategy into sublethally irradiated(3Gy) NSG mice and day 7 blood circulating CB derived platelets percentages measurement in the control and fucosylated groups.
(§3) To characterize the fucosylation levels at steady state, the inventors performed flow cytometry HECA-452 antibody staining (which recognizes sLex/cutaneous lymphocyte antigen (CLA), the fucosylated selectin ligand) to measure the levels of cell surface fucosylation in the freshly isolated CB derived hematopoietic stem cells(HSCs, lineage-CD34+CD38-CD90+CD45RA− cells), megakaryocytes lineage committed, megakaryocyte erythroid progenitors (MEPs, lineage-CD34+CD38+CD135−CD45RA−), and differentiated megakaryocytes(CD41a+CD42b+ cells). […] The NSG bone marrow homing experiments determine if the CB MK's surface fucosylation modification influences their homing into the irradiated mice marrow niche. Briefly, 5×10^6 fluorescein succinimidyl ester (CFSE) dye labeled, unmanipulated control or in-vitro fucosyltransferase-VI (FT-VI) induced fucosylated, expanded CB megakaryocytes were injected into sub-lethally (3Gy) irradiated NSG mice and bone marrow homing analysis at 20 h posttransplant was performed by flow cytometry. […] Similarly, another megakaryocytes tail vein transplantation (5×10^6/mice) experiment was performed, and initial percentage circulating platelets levels were measured from the control and fucosylated MK recipient groups. […]

[4] = system: megakaryocytes (CD41a+CD42b+ cells); experiment: as above; assay type: cell-based, human; conditions: FT-VI 0.025 μg/ml plus GDP-fucose, 37° C., 30 min, vs control
Excerpt: as §2, §3

[5] = system: CB derived hematopoietic stem cells (HSCs); experiment: as above; assay type: cell-based, human; conditions: FT-VI 0.025 μg/ml plus GDP-fucose, 37° C., 30 min, vs control
Excerpt: as §2, §3

Molecule | platelets secretion (number of platelets) (CB megakaryocytes [1]) | megakaryocyte polyploidy (polyploid =>8N megakaryocytes) (CB megakaryocytes [2]) | TRAP induced platelet activation (CD62P expression) (CB platelets) | neutropenia and thrombocytopenia duration in recipient patients (recipient patients) | fucosylation levels (HECA-452 MFI) in MEPs [3] | fucosylation levels (HECA-452 MFI) in megakaryocytes [4] | fucosylation levels (HECA-452 MFI) in HSCs [5]
C[C@@H](N)[C@H]1CC[C@H](C(=O)Nc2ccncc2)CC1 [Y27632] | enhance | increases | enhance |  |  |  | 
B1 |  |  |  | significantly reduce | significantly increased | significantly increased | significantly increased
